# Measurements taken from publication PMC12738837, “Structure of Trypanosoma peroxisomal import complex unveils conformational heterogeneity” (Nature Communications, 2025).
# Several values for one entry are separate records, joined by “and”; a condition that tells them apart may be missing. Equal values may be shown once.
# T1: Pex5_(eTPR)(P490R) (Trypanosoma cruzi, UniProt Q4DPQ9 316-668, P490R)
# T1 construct: source: E. coli BL21 (DE3), purified as wild type (Ni-NTA, SEC)
# T1 sequence: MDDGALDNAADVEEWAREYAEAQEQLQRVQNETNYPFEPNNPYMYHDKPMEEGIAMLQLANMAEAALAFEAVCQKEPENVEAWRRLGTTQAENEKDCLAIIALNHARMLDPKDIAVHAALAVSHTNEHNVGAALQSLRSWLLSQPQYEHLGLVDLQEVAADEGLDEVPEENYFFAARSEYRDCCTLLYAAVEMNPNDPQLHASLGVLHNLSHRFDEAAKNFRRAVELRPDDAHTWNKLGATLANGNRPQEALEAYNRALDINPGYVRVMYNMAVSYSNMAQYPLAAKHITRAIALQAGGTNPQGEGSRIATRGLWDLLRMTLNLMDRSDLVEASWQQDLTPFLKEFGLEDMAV
# T2: Pex5_(eTPR)(R625A, D629A) (Trypanosoma cruzi, UniProt Q4DPQ9 316-668, R625A | D629A)
# T2 construct: source: E. coli BL21 (DE3), purified as wild type (Ni-NTA, SEC)
# T2 sequence: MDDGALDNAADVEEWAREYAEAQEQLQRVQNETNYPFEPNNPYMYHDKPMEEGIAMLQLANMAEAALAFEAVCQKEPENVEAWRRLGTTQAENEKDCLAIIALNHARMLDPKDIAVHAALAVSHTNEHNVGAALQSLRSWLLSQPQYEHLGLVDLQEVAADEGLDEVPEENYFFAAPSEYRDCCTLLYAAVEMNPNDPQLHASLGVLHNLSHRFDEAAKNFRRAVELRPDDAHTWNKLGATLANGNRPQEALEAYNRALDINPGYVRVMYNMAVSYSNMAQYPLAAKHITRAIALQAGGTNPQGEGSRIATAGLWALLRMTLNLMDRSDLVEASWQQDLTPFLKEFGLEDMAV
# B1: glycosomal malate dehydrogenase (MDH, residues 1–323) (enzyme, Trypanosoma cruzi, UniProt Q4DRD8 1-323, looked up)
# chain: MVNVAVIGAAGGIGQSLSLLLLRELPFGSTLSLYDVVGAPGVAADLSHIDRAGITVKHAAGKLPPVPRDPALTELAEGVDVFVIVAGVPRKPGMTRDDLFNVNAGIVMDLVLTCASVSPNACFCIVTNPVNSTTPIAAQTLRKIGVYNKNKLLGVSLLDGLRATRFINNARHPLVVPYVPVVGGHSDVTIVPLYSQIPGPLPDESTLKEIRKRVQVAGTEVVKAKAGRGSATLSMAEAGARFTMHVVKALMGLDTPMVYAYVDTDGEHECPFLAMPVVLGKNGIERRLPIGPITTVEKEMLEEAVGVVKKNIAKGETFARSKL
# notes: glycosomal malate dehydrogenase (MDH), Trypanosoma cruzi, residues 1-323, UniProt Q4DRD8; Tetramer (two dimers related by D2 symmetry) by cryo-EM; also called cargo; MDH tetramer; source: E. coli BL21 (DE3), purified (Ni-NTA, SEC)
# What was measured:
# [1] = target: T3, Pex5_(eTPR) (residues 314–666), truncated Pex5 containing an extended TPR domain with a single Wxxx(F/Y) motif (Trypanosoma cruzi, UniProt Q4DPQ9 316-668); test: ITC; Pex5_(eTPR) (250 μM) injected into MDH (25 μM) in the cell; 100 mM Hepes, 150 mM NaCl, 2 mM β-mercaptoethanol, pH 7.5; 25 °C; conditions: both partners purified
# [2] = target: T1, Pex5_(eTPR)(P490R); test: as above; conditions: both partners purified
# [3] = target: T2, Pex5_(eTPR)(R625A, D629A); test: as above; conditions: both partners purified
# [4] = target: the molecule itself; test: cryo-EM structure; ternary complex: purified MDH (tetramer), full-length Pex5 and Pex14NTD mixed at 1:4:12, overnight at 4 °C, separated on Superose6 10/300, vitrified at ~0.75 mg/mL; no cross-linking; MDH alone solved from the same dataset
# [5] = target: 6-FAM labeled PTS1 peptide; test: fluorescence polarisation
# [6] = target: B1; test: cryo-EM structure; ternary complex: purified MDH (tetramer), full-length Pex5 and Pex14NTD mixed at 1:4:12, overnight at 4 °C, separated on Superose6 10/300, vitrified at ~0.75 mg/mL; no cross-linking; MDH alone solved from the same dataset; conditions: both partners purified
# [7] = target: T3, Pex5_(eTPR) (residues 314–666), …; test: ITC; Pex5_(eTPR) with the PTS1 peptide (NH2-ARSKL-COOH); who was in the cell is not stated for the peptide; 25 °C; conditions: both partners purified
binder,measurement,setting,value
B1,Kd,[1],435 ± 80 nM
same,Kd,[2],1390 ± 226 nM
same,Kd,[3],453 ± 64 nM
same,stoichiometry N,[4],4
"full length Pex5 (residues 1–666) (receptor, Trypanosoma cruzi, UniProt Q4DPQ9 1-668, looked up, Pex5, Trypanosoma cruzi, full length, residues 1-666, GenBank PBJ69826.1; Contains three Wxxx(F/Y) motifs; source: E. coli BL21 (DE3), purified (Ni-NTA, SEC)) MDCSTGAAIGQQFAKDAFHMHGGVGVGPTGNPEHDVLMNEMMMVQTPTGPAGEWTHQFAAYQGKQQQQHPQELAMRHQQNDALMLRQQQEMEEAFCTLCAAHPHSHAHSHAHSHQPQGLVGPAMMGPQIMPPMMFGPGSGGFMMGTPPMMPYASMKFAGDAAMAAANNTTMTQGATATSTTSVQQEQQQQQSSDNGWVEKLRDAEWAQDYSDAQVFTLEGQSEQTMEEHAKNSEFYQFMDKIRSKELLIDEETGQLVQGPGPDPDAPEDAEYLKEWAAAEGLNMPPGFFEHMMQRPQGNNEQAEGRLFDGSNDALMDDGALDNAADVEEWAREYAEAQEQLQRVQNETNYPFEPNNPYMYHDKPMEEGIAMLQLANMAEAALAFEAVCQKEPENVEAWRRLGTTQAENEKDCLAIIALNHARMLDPKDIAVHAALAVSHTNEHNVGAALQSLRSWLLSQPQYEHLGLVDLQEVAADEGLDEVPEENYFFAAPSEYRDCCTLLYAAVEMNPNDPQLHASLGVLHNLSHRFDEAAKNFRRAVELRPDDAHTWNKLGATLANGNRPQEALEAYNRALDINPGYVRVMYNMAVSYSNMAQYPLAAKHITRAIALQAGGTNPQGEGSRIATRGLWDLLRMTLNLMDRSDLVEASWQQDLTPFLKEFGLEDMAV",Kd,[5],88 nM
same,stoichiometry N,[6],1 Pex5 per MDH tetramer and 2 Pex5 per MDH tetramer
"H-ARSKL-OH (short peptide encompassing PTS1 of T. cruzi glycosomal MDH, residues 319-ARSKL-323; also called MDH-derived PTS1 peptide) [PTS1 peptide derived from MDH (NH2-ARSKL-COOH)]",Kd,[7],135 ± 19 nM
